Test results as given in publication PMC7406314.

Target: ARPC1A-STREP (human) (UniProt Q92747)
Experiment: co-purification of a co-expressed recombinant complex; Arp2/3-C1A complexes with ARPC5, ARPC5L or hybrids co-expressed in Sf21 cells and purified as previously described (Abella et al., 2016); Coomassie-stained gel, band quantification with Fiji normalised to ARPC2; immunoblot of the purified complexes

UniProt Q92747, sequence (Q92747 whole entry): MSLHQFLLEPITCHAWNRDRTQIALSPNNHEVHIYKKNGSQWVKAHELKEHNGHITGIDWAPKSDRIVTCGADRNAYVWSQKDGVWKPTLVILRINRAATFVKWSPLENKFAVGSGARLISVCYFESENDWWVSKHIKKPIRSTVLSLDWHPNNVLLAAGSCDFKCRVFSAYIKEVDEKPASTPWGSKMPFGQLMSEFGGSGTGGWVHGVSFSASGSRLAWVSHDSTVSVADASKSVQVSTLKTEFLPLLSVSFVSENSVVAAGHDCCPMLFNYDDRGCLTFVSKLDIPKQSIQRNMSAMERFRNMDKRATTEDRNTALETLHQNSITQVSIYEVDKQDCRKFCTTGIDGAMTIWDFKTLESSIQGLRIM
ARPC5L, sequence (Q9BPX5 whole entry): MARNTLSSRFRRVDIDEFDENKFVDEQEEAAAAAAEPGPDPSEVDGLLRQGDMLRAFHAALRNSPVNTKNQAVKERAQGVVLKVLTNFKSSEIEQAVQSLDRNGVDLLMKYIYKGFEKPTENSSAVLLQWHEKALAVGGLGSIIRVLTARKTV

- gel band ratio to ARPC2 in the purified Arp2/3-C1A complex (subunit occupancy): 0.52
Substance: ARPC5L (from UniProt Q9BPX5 1-153) (natural protein)
